Laboratory results published in patent US11407811B2, “Fusion protein, preparation method therefor and use thereof” (JIANGSU RONGTAI BIOTECH CO., LTD., priority 2017, dated 2022).

What was measured:
[1] = test system: breast cancer cell MDA-MB-231; assay: MTT assay, proliferation of breast cancer cell MDA-MB-231; assay type: cell-based
Experimental: (§1) The MTT assay was used to detect the inhibitory effect of the integrin blocker fusion protein obtained in Example 1 on the proliferation of various tumor cells, including melanoma cell B16F10, gastric cancer cell MGC-803, lung cancer cell A549, liver cancer cell Hep-G2, breast cancer cell MDA-MB-231, colon cancer cell HCT-116, human glioma U87, and cervical cancer cell Hela.
(§2) The tumor cells were cultured in a 5% CO2 incubator at 37° C. to a density of 90% or more, and collected by trypsinization. The cells were resuspended in the culture liquid and counted under a microscope. The cell concentration was adjusted to 3.0×10^4 cells/mL. The cell suspension was inoculated into a 96-well plate at 100 μL per well and cultured overnight in a 5% CO2 incubator at 37° C. […] After the cells were fully adhered, each dilution was added to a 96-well plate at 100 μL per well, respectively. […] 20 μL of 5 mg/mL MTT was added to each well of a 96-well plate, and incubation was continued for 4 hours. The medium was aspirated and 100 μL of DMSO per well were added to dissolve. The absorbance was measured at 570 nm with a microplate reader with a reference wavelength of 630 nm, and the proliferation inhibition (PI) was calculated. The formula is as follows: […]
(§3) where Ntest is the OD value of the test group and Ncontrol is the OD value of the blank control group.
(§4) The test was repeated 5 times independently. The results obtained from the test were calculated as mean±SD, and statistical t-test was performed. P<0.05 was considered as a significant difference, and P<0.01 was considered as an extremely significant difference.

human glioma U87 = assay: MTT assay, proliferation of human glioma U87; assay type: cell-based
Experimental: as §1, §2, §3, §4

[2] = test system: xylene-induced ear swelling in mice; assay: Xylene-induced ear swelling in mice; assay type: in vivo; conditions: for Swelling degree / PI: injection; for Swelling degree: 2 h after xylene, mice; for PI: ear swelling vs control
Experimental: 80 Kunming mice were divided into 8 groups with 10 mice for each group and numbered. A physiological saline group was used as a blank control group, an aspirin group (200 mg/kg) was used as a positive control group, and fusion protein I, protein II, protein III, protein IV and protein V at high, medium and low doses (128, 32, 8 mg/kg) were used as experimental groups. Mice were administered once by injection, while EDSM needed to be administered twice a day for 5 consecutive days. The blank control group was given an equal volume of physiological saline. After the fifth day, 0.05 mL of xylene was applied to both sides of the right ears of the mice to induce inflammation, and the left ears were not applied and were normal ears. After 2 h, the mice were sacrificed by dislocation, and the ears were cut along the auricle. Ear pieces were taken with a puncher and weighed, and the swelling degree and swelling rate were calculated. Swelling degree=right ear piece weight-left ear piece weight, swelling rate=(swelling degree/left ear piece weight)×100%.

[3] = test system: iris neovascularization in rabbits; assay: Iris neovascularization in rabbits; assay type: in vivo, rabbit; conditions: 128 μg, intravitreal injection once every 5 days for 2 weeks
Experimental: The argon ion laser at 577 nm was used to occlude the major branch vein of rabbit retina, and a success venous occlusion was confirmed by fundus fluorescein angiography (FFA).
9 eyes successful in modeling were randomly divided into […]. They were labeled as a negative control group, and fusion protein I, protein II, protein III, protein IV and protein V treatment groups, respectively, which were respectively given physiological saline, 128 μg of fusion protein I, 128 μg of protein II, 128 μg of protein III, 128 μg of protein IV and 128 μg of protein V via intravitreal injection once every 5 days for 2 weeks. The observation was performed with an optical and electron microscope on the third week.

[4] = test system: choroidal blood flow in rabbit eyes; assay: Choroidal blood flow in rabbit eyes (color microsphere technique); assay type: in vivo; conditions: 128 μg intravitreal injection; for Blood flow: rabbit eyes with high intraocular pressure
Experimental: New Zealand white rabbits with weight of 2.5-3.0 kg were randomly divided into […], which were labeled as a control group, and fusion protein I, protein II, protein III, protein IV, and protein V groups. White rabbits in each group were anesthetized with 35 mg/kg xylazine via intramuscular injection, and then anesthesia was maintained with half of the initial amount via intramuscular injection per hour. The intraocular pressure of the left eye was increased to 40 mmHg, under which the blood flow can be reduced to ⅓ of the normal value. The left ventricle was cannulated through right carotid artery for injection of microspheres (for the calculation of ocular blood flow), and the femoral artery was cannulated for blood collection. Each group was given physiological saline, 128 μg of fusion protein I, 128 μg of protein II, 128 μg of protein III, 128 μg of protein IV, and 128 μg of protein V via intravitreal injection. The ocular blood flow of rabbit eyes with high intraocular pressure was measured by a color microsphere technique at 0, 30, and 60 minutes after administration. At each time point, 0.2 mL (about 2 million) of microspheres were injected. Immediately after the microspheres were injected, blood was collected through the femoral artery for 60 seconds, and placed in a heparinized anticoagulant tube, and the amount of blood collected was recorded. After the last blood collection, the animals were sacrificed with 100 mg/kg phenobarbital via intravenous infusion. The eyeballs were removed, and the retina, choroid, iris and ciliary body were separated, and the tissue weight was recorded. The tissue blood flow at each time point was calculated with the following formula: Qm=(Cm×Qr)/Cr, where Qm represented tissue blood flow in μL/min/mg; Cm was the number of microspheres per milligram of tissue; Qr was blood flow in μL/min; and Cr was the number of blood microspheres as a reference.

B1: Protein II: IgG2-Fc linked to antiangiogenesis polypeptide EDSM-Y via a flexible linker; SEQ ID NO: 17 (protein)
chain: ERKCCVECPPCPAPPVAGPSVFLFPPKPKDTLMISRTPEVTCVVVDVSHEDPEVQFNWYVDGVEVHNAKTKPREEQFNSTFRVVSVLTVVHQDWLNGKEYKCKVSNKGLPAPIEKTISKTKGQPREPQVYTLPPSREEMTKNQVSLTCLVKGFYPSDISVEWESNGQPENNYKTTPPMLDSDGSFFLYSKLTVDKSRWQQGNVFSCSVMHEALHNHYTQKSLSLSPGKGGGGSGGGGSGGGGSFQPVLHLVALNSPLSGGMRGIRGADFQCFQQARAVGLAGTFRAGGGGRGD
- A570 nm/A630 nm ([1]; dose 1 μg/mL): 0.9859 ± 0.0397
- PI (%) ([1]; dose 1 μg/mL): 5.09%
- A570 nm/A630 nm ([1]; dose 2 μg/mL): 0.9552 ± 0.0419
- PI (%) ([1]; dose 2 μg/mL): 8.05%
- A570 nm/A630 nm ([1]; dose 4 μg/mL): 0.9150 ± 0.0283
- PI (%) ([1]; dose 4 μg/mL): 11.92%
- A570 nm/A630 nm ([1]; dose 8 μg/mL): 0.8806 ± 0.0345
- PI (%) ([1]; dose 8 μg/mL): 15.23%
- A570 nm/A630 nm ([1]; dose 16 μg/mL): 0.8110 ± 0.0298
- PI (%) ([1]; dose 16 μg/mL): 21.93%
- A570 nm/A630 nm ([1]; dose 32 μg/mL): 0.7546 ± 0.0274
- PI (%) ([1]; dose 32 μg/mL): 27.36%
- A570 nm/A630 nm ([1]; dose 64 μg/mL): 0.6945 ± 0.0326
- PI (%) ([1]; dose 64 μg/mL): 33.14%
- A570 nm/A630 nm ([1]; dose 128 μg/mL): 0.6589 ± 0.0287
- PI (%) ([1]; dose 128 μg/mL): 36.57%
- A570 nm/A630 nm ([1]; dose 256 μg/mL): 0.6012 ± 0.0311
- PI (%) ([1]; dose 256 μg/mL): 42.13%
- A570 nm/A630 nm (human glioma U87; dose 1 μg/mL): 0.6788 ± 0.0374
- PI (%) (human glioma U87; dose 1 μg/mL): 3.01%
- A570 nm/A630 nm (human glioma U87; dose 2 μg/mL): 0.6523 ± 0.0405
- PI (%) (human glioma U87; dose 2 μg/mL): 6.80%
- A570 nm/A630 nm (human glioma U87; dose 4 μg/mL): 0.6021 ± 0.0233
- PI (%) (human glioma U87; dose 4 μg/mL): 13.97%
- A570 nm/A630 nm (human glioma U87; dose 8 μg/mL): 0.5423 ± 0.0357
- PI (%) (human glioma U87; dose 8 μg/mL): 22.52%
- A570 nm/A630 nm (human glioma U87; dose 16 μg/mL): 0.5006 ± 0.0282
- PI (%) (human glioma U87; dose 16 μg/mL): 28.48%
- A570 nm/A630 nm (human glioma U87; dose 32 μg/mL): 0.4652 ± 0.0249
- PI (%) (human glioma U87; dose 32 μg/mL): 33.53%
- A570 nm/A630 nm (human glioma U87; dose 64 μg/mL): 0.4080 ± 0.0366
- PI (%) (human glioma U87; dose 64 μg/mL): 41.71%
- PI (%) (human glioma U87; dose 64 μg/mL, listed as protein II): about 50%
- A570 nm/A630 nm (human glioma U87; dose 128 μg/mL): 0.3143 ± 0.0279
- PI (%) (human glioma U87; dose 128 μg/mL): 55.09%
- A570 nm/A630 nm (human glioma U87; dose 256 μg/mL): 0.2222 ± 0.0316
- PI (%) (human glioma U87; dose 256 μg/mL): 68.25%
- Swelling degree ([2]; 8 mg/kg): 6.21 ± 0.23 mg
- PI ([2]; 8 mg/kg): 6.62%
- Swelling degree ([2]; 32 mg/kg): 5.18 ± 0.89 mg
- PI ([2]; 32 mg/kg): 22.11%
- Swelling degree ([2]; 128 mg/kg): 3.87 ± 0.45 mg
- PI ([2]; 128 mg/kg): 41.80%
- inhibition of xylene-induced ear swelling ([2]; high doses): could significantly inhibit xylene-induced ear swelling
- effect on iris neovascularization [3]: could inhibit neovascularization and regress the formed blood vessels
- Blood flow ([4]; 0 min after administration): 22.9 ± 2.5 µL/min/mg
- Blood flow ([4]; 30 min after administration): 15.7 ± 1.3 µL/min/mg
- Blood flow ([4]; 60 min after administration): 13.9 ± 1.2 µL/min/mg
- choroidal blood flow ([4]; all observation time points): significantly increased
